# According to PMC10083196 (Cell Reports, 2023):
# B1: 2A10 IgG (antibody, V domains shown)
# VH: QVQLVESGGGLIQPGGSLRLSCAASEFIVSSNYMSWVRQAPGKGLEWVSLLYSGGTTYYADSVKGRFTISRDNSKNTLFLQMNSLRAEDTAMYYCARDRGPWLHDYWGQGTLVTVSS
# VL: DIVMTQSPSSLSASVGDRVTITCQASQDINKYCNWYQQKPGKAPKLLIYDASNLETGVPSRFSGSGSGTDFTFTINSLQPEDIATYYCQQYDNLPPTFGGGTKVEIK
# B2: 2A10 Fab (Fab, V domains shown)
# VH: B1 VH
# VL: B1 VL
# B3: 1H2 IgG (antibody, V domains shown)
# VH: QVQLQQSGGGLVQPGRSLRLSCAASGFTFDDYAMHWVRQAPGKGLEWVSGITWNSGTIGYADSVKGRFTISRDNAKNSLYLQMRSLRAEDTALYYCAKDSGRKLLWGREDYYMGVWGKGTTVTV
# VL: SYELTQPPSVSVAPGKTARITCGGSNIGSKSVHWYQQKPGQAPVLVIYYDSDRPSGIPERFSGSNSGNTATLTISRVEAGDEADYYCQVWDSSSDHVVFGG
# Legend:
# [1] = molecular target: T1, SARS-CoV-2 spike receptor-binding domain (soluble RBD, residues 319–591) (SARS-CoV-2, UniProt P0DTC2); assay: SPR
# [2] = molecular target: T1, SARS-CoV-2 spike receptor-binding …; assay: crystal structure
Binder,binding result [1],binding result [2]
B1,binds,–
B2,–,binds
B3,binds,–
